Article PMC9614721, “Polyvalent Glycan Quantum Dots as a Multifunctional Tool for Revealing Thermodynamic, Kinetic, and Structural Details of Multivalent Lectin–Glycan Interactions” (ACS Applied Materials & Interfaces, 2022)

B1: DC-SIGN, soluble extracellular segment, Q274C, labeled with Atto-594 (domain or fragment, UniProt Q9NNX6 59-404, looked up)
chain: QVSKVPSSISQEQSRQDAIYQNLTQLKAAVGELSEKSKLQEIYQELTQLKAAVGELPEKSKLQEIYQELTRLKAAVGELPEKSKLQEIYQELTWLKAAVGELPEKSKMQEIYQELTRLKAAVGELPEKSKQQEIYQELTRLKAAVGELPEKSKQQEIYQELTRLKAAVGELPEKSKQQEIYQELTQLKAAVERLCHPCPWEWTFFQGNCYFMSNSCRNWHDSITACKEVGAQLVVIKSAEEQNFLQLQSSRSNRFTWMGLSDLNQEGTWQWVDGSPLLPSFKQYWNRGEPNNVGEEDCAEFSGNGWNDDKCNLAKFWICKKSAASCSRDEEQFLSPAPATPNPPPA
modifications: maleimide-modified Atto-594 dye on the cysteine introduced at Q274 (labeling efficiency ~85% per monomer)
notes: DC-SIGN, soluble extracellular segment; also called dendritic-cell-specific intercellular adhesion molecule-3-grabbing nonintegrin; source: expressed, purified
B2: DC-SIGNR, soluble extracellular segment, R287C, labeled with Atto-594 (domain or fragment, UniProt Q9H2X3 71-399, looked up)
chain: QVSKVPSSLSQEQSEQDAIYQNLTQLKAAVGELSEKSKLQEIYQELTQLKAAVGELPEKSKLQEIYQELTRLKAAVGELPEKSKLQEIYQELTRLKAAVGELPEKSKLQEIYQELTRLKAAVGELPEKSKLQEIYQELTELKAAVGELPEKSKLQEIYQELTQLKAAVGELPDQSKQQQIYQELTDLKTAFERLCRHCPKDWTFFQGNCYFMSNSQCNWHDSVTACQEVRAQLVVIKTAEEQNFLQLQTSRSNRFSWMGLSDLNQEGTWQWVDGSPLSPSFQRYWNSGEPNNSGNEDCAEFSGSGWNDNRCDVDNYWICKKPAACFRDE
modifications: maleimide-modified Atto-594 dye on the cysteine introduced at R287 (labeling efficiency ~85% per monomer)
notes: DC-SIGNR, soluble extracellular segment; also called a DC-SIGN related lectin found on endothelial cells; source: expressed, purified

Columns and labels:
[1] = target: DC-SIGN with its C-terminal 16 amino acids truncated, soluble extracellular segment, Q274C, labeled with Atto-594 (UniProt Q9NNX6); assay: dynamic light scattering; purified lectins in solution; hydrodynamic diameters ~14 nm; identity also checked by HRMS and UV-vis spectroscopy
[2] = target: the molecule itself; assay: as above

| Molecule | stoichiometry N [1] | stoichiometry N [2] |
| --- | --- | --- |
| DC-SIGN with its C-terminal 16 amino acids truncated, soluble extracellular segment, Q274C, labeled with Atto-594 (from UniProt Q9NNX6 59-404) (domain or fragment) | 4 | – |
| B1 | – | 4 |
| B2 | – | 4 |
